Publication PMC9482650, “Quantitative fragmentomics allow affinity mapping of interactomes” (Nature Communications, 2022)

Experiments:
Experiment in all cases: holdup assay
Parameters in all cases: key: below the threshold = too weak to quantify, mostly under pKd 3.1 to 4
HTRA2, O43464 = biological target: HTRA2, O43464
PTPN13_1, Q12923 = biological target: T1, PTPN13_1, Q12923
T1 sequence (Q12923 1088-1188, limits assumed, looked up): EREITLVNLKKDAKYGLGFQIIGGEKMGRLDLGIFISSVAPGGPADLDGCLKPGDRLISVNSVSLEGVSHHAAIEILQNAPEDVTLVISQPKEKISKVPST

MPP7, Q5T2T1 = biological target: T2, MPP7, Q5T2T1
T2 sequence (Q5T2T1 134-230, limits assumed, looked up): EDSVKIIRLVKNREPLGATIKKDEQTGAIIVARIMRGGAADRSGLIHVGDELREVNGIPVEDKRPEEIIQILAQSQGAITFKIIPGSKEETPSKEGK

CARD11, Q9BXL7 = biological target: T3, CARD11, Q9BXL7
T3 sequence (Q9BXL7 662-765, limits assumed, looked up): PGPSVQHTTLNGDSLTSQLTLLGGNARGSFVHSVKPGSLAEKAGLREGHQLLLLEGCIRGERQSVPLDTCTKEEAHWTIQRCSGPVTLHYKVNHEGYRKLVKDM

GRIP1_2, Q9Y3R0 = biological target: T4, GRIP1_2, Q9Y3R0
T4 sequence (Q9Y3R0 145-248, limits assumed, looked up): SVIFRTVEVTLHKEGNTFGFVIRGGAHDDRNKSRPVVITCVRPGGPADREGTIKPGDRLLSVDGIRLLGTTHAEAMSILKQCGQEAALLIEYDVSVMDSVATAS

PDZD7_3, Q9H5P4 = biological target: T5, PDZD7_3, Q9H5P4
T5 sequence (Q9H5P4 857-944, limits assumed, looked up): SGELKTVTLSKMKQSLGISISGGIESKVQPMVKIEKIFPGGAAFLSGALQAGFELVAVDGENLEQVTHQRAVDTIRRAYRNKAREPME

APBA3_1, O96018 = biological target: T6, APBA3_1, O96018
T6 sequence (O96018 389-490, limits assumed, looked up): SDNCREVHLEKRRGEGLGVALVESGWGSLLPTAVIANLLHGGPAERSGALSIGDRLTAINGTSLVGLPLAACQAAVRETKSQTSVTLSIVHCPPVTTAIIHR

Inadl_5, Q8NI35 = biological target: Inadl_5, Q8NI35
LNX1_2, Q8TBB1 = biological target: LNX1_2, Q8TBB1
LNX2_2, Q8N448 = biological target: T7, LNX2_2, Q8N448
T7 sequence (Q8N448 334-432, limits assumed, looked up): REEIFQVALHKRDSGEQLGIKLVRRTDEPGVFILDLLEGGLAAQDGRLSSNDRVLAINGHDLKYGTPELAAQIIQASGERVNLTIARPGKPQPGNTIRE

APBA1_2, Q02410 = biological target: T8, APBA1_2, Q02410
T8 sequence (Q02410 742-832, limits assumed, looked up): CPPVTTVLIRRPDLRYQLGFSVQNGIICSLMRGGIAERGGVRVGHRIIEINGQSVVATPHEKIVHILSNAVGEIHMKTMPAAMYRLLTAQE

GRASP, Q7Z6J2 = biological target: GRASP, Q7Z6J2
GRIP1_4, Q9Y3R0 = biological target: T9, GRIP1_4, Q9Y3R0
T9 sequence (Q9Y3R0 467-571, limits assumed, looked up): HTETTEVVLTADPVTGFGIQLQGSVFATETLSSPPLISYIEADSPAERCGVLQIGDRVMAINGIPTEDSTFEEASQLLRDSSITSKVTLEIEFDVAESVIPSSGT

MAST1, Q9Y2H9 = biological target: MAST1, Q9Y2H9
APBA2_1, Q99767 = biological target: T10, APBA2_1, Q99767
T10 sequence (Q99767 563-664, limits assumed, looked up): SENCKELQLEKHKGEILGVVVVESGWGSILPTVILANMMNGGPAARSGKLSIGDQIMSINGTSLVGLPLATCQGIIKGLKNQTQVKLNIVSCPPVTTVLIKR

CASK, O14936 = biological target: CASK, O14936
MPDZ_12, O75970 = biological target: T11, MPDZ_12, O75970
T11 sequence (O75970 1857-1958, limits assumed, looked up): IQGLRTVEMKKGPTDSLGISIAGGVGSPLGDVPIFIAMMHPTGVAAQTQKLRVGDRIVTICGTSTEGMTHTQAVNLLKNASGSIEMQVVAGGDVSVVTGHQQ

AHNAK1, Q09666 = biological target: AHNAK1, Q09666
TJP1_2, Q07157 = biological target: TJP1_2, Q07157
Inadl_3, Q8NI35 = biological target: Inadl_3, Q8NI35
RADIL, Q96JH8 = biological target: T12, RADIL, Q96JH8
T12 sequence (Q96JH8 971-1071, limits assumed, looked up): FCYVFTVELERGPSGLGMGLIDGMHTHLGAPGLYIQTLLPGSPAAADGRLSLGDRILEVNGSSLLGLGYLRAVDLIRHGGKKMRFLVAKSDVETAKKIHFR

GORASP1, Q9BQQ3 = biological target: GORASP1, Q9BQQ3
NHERF3_3, Q5T2W1 = biological target: T13, NHERF3_3, Q5T2W1
T13 sequence (Q5T2W1 238-333, limits assumed, looked up): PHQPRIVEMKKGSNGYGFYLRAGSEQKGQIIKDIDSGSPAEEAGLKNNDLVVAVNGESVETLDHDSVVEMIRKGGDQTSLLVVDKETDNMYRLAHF

MAGI2_5, Q86UL8 = biological target: MAGI2_5, Q86UL8
[1] = plain residues with an end cap or a label only (N-terminal biotin on a linker: ttds)
[2] = plain residues with an end cap or a label only (N-terminal biotin on a linker: ahx)

Inadl_3, Q8NI35, sequence (Q8NI35 359-469): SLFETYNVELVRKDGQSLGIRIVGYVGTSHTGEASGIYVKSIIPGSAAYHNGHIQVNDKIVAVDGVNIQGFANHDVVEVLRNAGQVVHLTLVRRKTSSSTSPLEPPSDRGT
HTRA2, O43464, sequence (O43464 355-458): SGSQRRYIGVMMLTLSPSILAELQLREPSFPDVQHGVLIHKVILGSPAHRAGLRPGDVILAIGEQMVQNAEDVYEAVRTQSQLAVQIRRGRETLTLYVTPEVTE
GORASP1, Q9BQQ3, sequence (Q9BQQ3 1-208): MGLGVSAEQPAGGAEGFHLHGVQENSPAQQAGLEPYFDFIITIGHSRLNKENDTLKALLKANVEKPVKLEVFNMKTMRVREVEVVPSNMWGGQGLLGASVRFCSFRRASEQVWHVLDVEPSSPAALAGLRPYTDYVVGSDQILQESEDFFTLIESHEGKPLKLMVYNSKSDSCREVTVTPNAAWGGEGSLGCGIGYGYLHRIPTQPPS
Inadl_5, Q8NI35, sequence (Q8NI35 673-780): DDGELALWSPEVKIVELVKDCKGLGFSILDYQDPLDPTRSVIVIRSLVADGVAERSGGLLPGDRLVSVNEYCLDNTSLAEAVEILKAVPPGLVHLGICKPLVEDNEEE
CASK, O14936, sequence (O14936 487-570): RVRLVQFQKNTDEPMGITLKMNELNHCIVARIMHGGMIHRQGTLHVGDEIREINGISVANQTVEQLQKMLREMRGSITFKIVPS
LNX1_2, Q8TBB1, sequence (Q8TBB1 371-470): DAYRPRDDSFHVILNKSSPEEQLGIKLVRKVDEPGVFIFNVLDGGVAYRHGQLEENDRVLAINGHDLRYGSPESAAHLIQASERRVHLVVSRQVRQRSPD
GRASP, Q7Z6J2, sequence (Q7Z6J2 96-193): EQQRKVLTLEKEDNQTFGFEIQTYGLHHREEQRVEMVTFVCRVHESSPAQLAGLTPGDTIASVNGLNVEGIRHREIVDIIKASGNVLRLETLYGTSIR
MAGI2_5, Q86UL8, sequence (Q86UL8 915-1017): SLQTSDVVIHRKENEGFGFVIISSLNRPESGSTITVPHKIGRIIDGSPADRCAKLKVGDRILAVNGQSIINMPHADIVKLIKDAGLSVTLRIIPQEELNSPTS
MAST1, Q9Y2H9, sequence (Q9Y2H9 962-1065): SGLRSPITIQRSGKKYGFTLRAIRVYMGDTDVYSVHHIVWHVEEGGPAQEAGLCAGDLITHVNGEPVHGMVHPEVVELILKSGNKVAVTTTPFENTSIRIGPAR
AHNAK1, Q09666, sequence (Q09666 4-100): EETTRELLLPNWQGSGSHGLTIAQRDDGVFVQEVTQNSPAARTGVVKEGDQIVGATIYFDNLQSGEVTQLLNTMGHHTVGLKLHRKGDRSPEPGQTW
TJP1_2, Q07157, sequence (Q07157 181-274): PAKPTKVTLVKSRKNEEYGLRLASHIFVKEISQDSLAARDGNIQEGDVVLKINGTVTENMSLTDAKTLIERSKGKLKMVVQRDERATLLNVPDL

For SRSRRRETAL [HPV33-E6, P06427], the pKd (HTRA2, O43464; [1]) was 3.46, the pKd (PTPN13_1, Q12923; [1]) was “below the threshold” and the pKd (MPP7, Q5T2T1; [1]) was “below the threshold”. For the same binder, the pKd (CARD11, Q9BXL7; [1]) was “below the threshold”, the pKd (GRIP1_2, Q9Y3R0; [1]) was “below the threshold” and the pKd (PDZD7_3, Q9H5P4; [1]) was 4.65. The pKd (APBA3_1, O96018; [1]) was “below the threshold”, the pKd (Inadl_5, Q8NI35; [1]) was “below the threshold” and the pKd (LNX1_2, Q8TBB1; [1]) was “below the threshold”. For the same binder, the pKd (LNX2_2, Q8N448; [1]) was “below the threshold”, the pKd (APBA1_2, Q02410; [1]) was “below the threshold” and the pKd (GRASP, Q7Z6J2; [1]) was 3.49. For the same binder, the pKd (GRIP1_4, Q9Y3R0; [1]) was “below the threshold”, the pKd (MAST1, Q9Y2H9; [1]) was 4.78 and the pKd (APBA2_1, Q99767; [1]) was “below the threshold”. For the same binder, the pKd (CASK, O14936; [1]) was “below the threshold”, the pKd (MPDZ_12, O75970; [1]) was “below the threshold” and the pKd (AHNAK1, Q09666; [1]) was 3.62. The pKd (TJP1_2, Q07157; [1]) was “below the threshold”, the pKd (Inadl_3, Q8NI35; [1]) was “below the threshold” and the pKd (RADIL, Q96JH8; [1]) was “below the threshold”. The pKd (GORASP1, Q9BQQ3; [1]) was “below the threshold”, the pKd (NHERF3_3, Q5T2W1; [1]) was “below the threshold” and the pKd (MAGI2_5, Q86UL8; [1]) was “below the threshold”.

With FVETQHQTQV [FAT3, Q8TDW7] the pKd (HTRA2, O43464; [1]) was “below the threshold”, the pKd (PTPN13_1, Q12923; [1]) was “below the threshold” and the pKd (MPP7, Q5T2T1; [1]) was “below the threshold”. The pKd (CARD11, Q9BXL7; [1]) was “below the threshold”, the pKd (GRIP1_2, Q9Y3R0; [1]) was 3.51 and the pKd (PDZD7_3, Q9H5P4; [1]) was 4.11. For the same binder, the pKd (APBA3_1, O96018; [1]) was “below the threshold”, the pKd (Inadl_5, Q8NI35; [1]) was “below the threshold” and the pKd (LNX1_2, Q8TBB1; [1]) was “below the threshold”. For the same binder, the pKd (LNX2_2, Q8N448; [1]) was 3.75, the pKd (APBA1_2, Q02410; [1]) was 3.9 and the pKd (GRASP, Q7Z6J2; [1]) was 3.69. For the same binder, the pKd (GRIP1_4, Q9Y3R0; [1]) was “below the threshold”, the pKd (MAST1, Q9Y2H9; [1]) was 4.8 and the pKd (APBA2_1, Q99767; [1]) was “below the threshold”. For the same binder, the pKd (CASK, O14936; [1]) was “below the threshold”, the pKd (MPDZ_12, O75970; [1]) was “below the threshold” and the pKd (AHNAK1, Q09666; [1]) was 3.52. For the same binder, the pKd (TJP1_2, Q07157; [1]) was “below the threshold”, the pKd (Inadl_3, Q8NI35; [1]) was “below the threshold” and the pKd (RADIL, Q96JH8; [1]) was 4.27. For the same binder, the pKd (GORASP1, Q9BQQ3; [1]) was “below the threshold”, the pKd (NHERF3_3, Q5T2W1; [1]) was “below the threshold” and the pKd (MAGI2_5, Q86UL8; [1]) was 4.72.

With SAPATLSSRA [PDLIM2, Q96JY6] the pKd (HTRA2, O43464; [2]) was “below the threshold”, the pKd (PTPN13_1, Q12923; [2]) was “below the threshold” and the pKd (MPP7, Q5T2T1; [2]) was “below the threshold”. For the same binder, the pKd (CARD11, Q9BXL7; [2]) was “below the threshold”, the pKd (GRIP1_2, Q9Y3R0; [2]) was “below the threshold” and the pKd (PDZD7_3, Q9H5P4; [2]) was “below the threshold”. The pKd (APBA3_1, O96018; [2]) was “below the threshold”, the pKd (Inadl_5, Q8NI35; [2]) was “below the threshold” and the pKd (LNX1_2, Q8TBB1; [2]) was “below the threshold”. For the same binder, the pKd (LNX2_2, Q8N448; [2]) was “below the threshold”, the pKd (APBA1_2, Q02410; [2]) was “below the threshold” and the pKd (GRASP, Q7Z6J2; [2]) was “below the threshold”. The pKd (GRIP1_4, Q9Y3R0; [2]) was “below the threshold”, the pKd (MAST1, Q9Y2H9; [2]) was “below the threshold” and the pKd (APBA2_1, Q99767; [2]) was “below the threshold”. The pKd (CASK, O14936; [2]) was “below the threshold”, the pKd (MPDZ_12, O75970; [2]) was “below the threshold” and the pKd (AHNAK1, Q09666; [2]) was “below the threshold”. The pKd (TJP1_2, Q07157; [2]) was “below the threshold”, the pKd (Inadl_3, Q8NI35; [2]) was 3.48 and the pKd (RADIL, Q96JH8; [2]) was “below the threshold”. The pKd (GORASP1, Q9BQQ3; [2]) was “below the threshold”, the pKd (NHERF3_3, Q5T2W1; [2]) was “below the threshold” and the pKd (MAGI2_5, Q86UL8; [2]) was “below the threshold”.
